US20200369755A1 (PROTHENA BIOSCIENCES, published 2020)
Where no end group is shown, it is not given here.

Experiments:
Assay in all cases: peptide ELISA, biotinylated peptide on streptavidin plate; background-subtracted absorbance; positive from 0.2
28-42 = biological target: T1, 28-42 (also: biotinylated, site not given here)
T1 construct: also called tau peptide 28-42 (4R0N numbering)
T1 peptide: GYTMHQDQEGDTDAG
Description: (§1) Additional peptides were used to model potential post-translational modifications of the C- and N-terminal ends of the protein.
(§2) Biotinylated peptides were bound to separate wells of a streptavidin-coated ELISA plate. The plate was blocked and treated with murine 3D6, followed by incubation with a horseradish peroxidase-conjugated anti-mouse antibody. After thorough washing, OPD was applied to the plate and allowed to develop. The plate was read at 450 nm absorbance. Background subtraction was performed with absorbance values from wells containing no primary antibody, and a threshold for positive binding was set to 0.2 absorbance units. […] (FIG. 1)

325-339 = biological target: T2, 325-339 (also: biotinylated, site not given here)
T2 construct: also called tau peptide 325-339 (4R0N numbering)
T2 peptide: KAKTDHGAEIVYKSP
Description: as §1, §2

289-303 = biological target: T3, 289-303 (also: biotinylated, site not given here)
T3 construct: also called tau peptide 289-303 (4R0N numbering)
T3 peptide: KDRVQSKIGSLDNIT
Description: as §1, §2

217-231 = biological target: T4, 217-231 (also: biotinylated, site not given here)
T4 construct: also called tau peptide 217-231 (4R0N numbering)
T4 peptide: VQIINKKLDLSNVQS
Description: as §1, §2

253-267 = biological target: T5, 253-267 (also: biotinylated, site not given here)
T5 construct: also called tau peptide 253-267 (4R0N numbering)
T5 peptide: KPVDLSKVTSKCGSL
Description: as §1, §2

1-15* (acetylated) = biological target: T6, 1-15* (acetylated) (also: biotinylated (site not given here))
T6 construct: also called tau peptide 1-15 (4R0N numbering), acetylated
T6 peptide: Ac-MAEPRQEFEVMEDHA
Description: as §1, §2

163-177 = biological target: T7, 163-177 (also: biotinylated, site not given here)
T7 peptide: REPKKVAVVRTPPKS
Description: as §1, §2

[1] = biological target: T8, 369-383 (amidated C-term) (also: biotinylated, site not given here)
T8 peptide: TLADEVSASLAKQGL-NH2
Description: as §1, §2

46-60 = biological target: T9, 46-60 (also: biotinylated, site not given here)
T9 construct: also called tau peptide 46-60 (4R0N numbering)
T9 peptide: EEAGIGDTPSLEDEA
Description: as §1, §2

127-141 = biological target: T10, 127-141 (also: biotinylated, site not given here)
T10 peptide: SGEPPKSGDRSGYSS
Description: as §1, §2

361-375 = biological target: T11, 361-375 (also: biotinylated, site not given here)
T11 peptide: MVDSPQLATLADEVS
Description: as §1, §2

64-78 = biological target: T12, 64-78 (also: biotinylated, site not given here)
T12 construct: also called tau peptide 64-78 (4R0N numbering)
T12 peptide: VTQARMVSKSKDGTG
Description: as §1, §2

1-15* (free N-term) = biological target: T13, 1-15* (free N-term) (also: biotinylated (site not given here))
T13 construct: also called tau peptide 1-15 (4R0N numbering), free N-terminus
T13 peptide: H-MAEPRQEFEVMEDHA
Description: as §1, §2

280-294 = biological target: T14, 280-294 (also: biotinylated, site not given here)
T14 construct: also called tau peptide 280-294 (4R0N numbering)
T14 peptide: EVKSEKLDFKDRVQS
Description: as §1, §2

154-168 = biological target: T15, 154-168 (biotinylated)
T15 construct: also called tau peptide 154-168 (4R0N numbering)
Description: as §1, §2

55-69 = biological target: T16, 55-69 (also: biotinylated, site not given here)
T16 construct: also called tau peptide 55-69 (4R0N numbering)
T16 peptide: SLEDEAAGHVTQARM
Description: as §1, §2

334-348 = biological target: T17, 334-348 (also: biotinylated, site not given here)
T17 construct: also called tau peptide 334-348 (4R0N numbering)
T17 peptide: IVYKSPVVSGDTSPR
Description: as §1, §2

316-330 = biological target: T18, 316-330 (also: biotinylated, site not given here)
T18 construct: also called tau peptide 316-330 (4R0N numbering)
T18 peptide: HKLTFRENAKAKTDH
Description: as §1, §2

91-105 = biological target: T19, 91-105 (also: biotinylated, site not given here)
T19 construct: also called tau peptide 91-105 (4R0N numbering)
T19 peptide: TKIATPRGAAPPGQK
Description: as §1, §2

73-87 = biological target: T20, 73-87 (also: biotinylated, site not given here)
T20 construct: also called tau peptide 73-87 (4R0N numbering)
T20 peptide: SKDGTGSDDKKAKGA
Description: as §1, §2

172-186 = biological target: T21, 172-186 (also: biotinylated, site not given here)
T21 construct: also called tau peptide 172-186 (4R0N numbering)
T21 peptide: RTPPKSPSSAKSRLQ
Description: as §1, §2

Measured: binding result

B1: murine 3D6 monoclonal antibody (antibody, IgG1, V domains shown)
VH: EVQLQQSGADLVRPGALVKLSCKASGFNIKDYYLHWVRQRPEQGLEWIGWIDPENGDTVYDPKFQGKATITADTSSNTAYLQLGSLTSEDTAVYFCSTLDFWGQGTTLTVSS
VL: not shown
notes: Hybridoma-derived mouse antibody; also called m3D6; mouse 3D6
no binding: 28-42 | 325-339 | 289-303 | 217-231 | 253-267 | 1-15* (acetylated) | 163-177 | [1] | 46-60 | 127-141 | 361-375 | 64-78 | 1-15* (free N-term) | 280-294 | 154-168 | 55-69 | 334-348 | 316-330 | 91-105 | 73-87 | 172-186
